Results on two substances are retold here after publication PMC9756848.

One experiment has as its target Flag-hAPRIL (human). Kind of experiment: SEC; Superdex S200 Increase HR 10/30, PBS 10 ug/ml BSA, 0.7 ml/min; proteins alone or Flag-ligand with a 20-fold mass excess of atacicept; fractions analysed by Western blot; complexes of fractions 10 and 11 concentrated and run again.
Experiment [1] deals with endogenous BAFF (human serum) (human (endogenous in serum)). As to the kind of experiment: SEC; 300 ul serum of an atacicept-treated SLE patient (pre-dose, 4 weeks of treatment, 12 weeks after treatment end) fractionated in PBS; BAFF ELISA and non-reducing anti-TACI Western blot of the fractions.

Consider Flag-hAPRIL (ligand), for which the stoichiometry N with Flag-hAPRIL (human) turned out to be 3.

Substance endogenous BAFF (human serum) (ligand) showed a stoichiometry N in experiment [1] of 3.
